Test results: publication PMC9482650, “Quantitative fragmentomics allow affinity mapping of interactomes” (Nature Communications, 2022)

B1: BANF1, O75531 (peptide)
chain: CLREWCDAFL
B2: ERBB4, Q15303 (peptide)
chain: PPYRHRNTVV
B3: GRIN2C, Q14957 (peptide)
chain: RRISSLESEV

Each binder was assayed against GRASP, Q7Z6J2 (assay: holdup assay). Settings: plain residues with an end cap or a label only (N-terminal biotin on a linker: ado-ado).
Chain of GRASP, Q7Z6J2 (Q7Z6J2 96-193): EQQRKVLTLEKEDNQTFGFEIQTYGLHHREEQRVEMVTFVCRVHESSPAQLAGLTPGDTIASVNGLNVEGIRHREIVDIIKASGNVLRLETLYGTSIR
Set-up: key: below the threshold = too weak to quantify, mostly under pKd 3.1 to 4
Work on B1 yielded a pKd of 3.51. B2 gave a pKd of 4.04. With B3 the pKd was “below the threshold”.

These binders were tested against TJP1_2, Q07157 (assay: holdup assay). Settings: plain residues with an end cap or a label only (N-terminal biotin on a linker: ado-ado).
Chain of TJP1_2, Q07157 (Q07157 181-274): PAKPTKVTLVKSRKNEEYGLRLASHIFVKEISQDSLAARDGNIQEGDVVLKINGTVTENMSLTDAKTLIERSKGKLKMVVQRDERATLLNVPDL
Set-up: key: below the threshold = too weak to quantify, mostly under pKd 3.1 to 4
B1 was tested, and the pKd was “below the threshold”. B2 was tested, and the pKd was “below the threshold”. With B3 the pKd was “below the threshold”.

The binders below were run against T1, RADIL, Q96JH8 (assay: holdup assay). Settings: plain residues with an end cap or a label only (N-terminal biotin on a linker: ado-ado).
T1 sequence (Q96JH8 971-1071, limits assumed, looked up): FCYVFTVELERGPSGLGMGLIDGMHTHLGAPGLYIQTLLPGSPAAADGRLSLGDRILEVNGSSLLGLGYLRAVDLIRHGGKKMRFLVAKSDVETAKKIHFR
Set-up: key: below the threshold = too weak to quantify, mostly under pKd 3.1 to 4
Binder B1 has a pKd of 3.85. B2 was tested, and the pKd was 4.21. B3 was tested, and the pKd was “below the threshold”.

The binders below were run against DLG1_3, Q12959 (assay: holdup assay). Settings: plain residues with an end cap or a label only (N-terminal biotin on a linker: ado-ado).
Set-up: key: below the threshold = too weak to quantify, mostly under pKd 3.1 to 4
With B1 the pKd was “below the threshold”. In the case of B2, the pKd is reported as 4.01. B3 gave a pKd of 4.09.

What follows are binders tested against MAGI2_2, Q86UL8 (assay: holdup assay). Settings: plain residues with an end cap or a label only (N-terminal biotin on a linker: ado-ado).
Chain of MAGI2_2, Q86UL8 (Q86UL8 410-522): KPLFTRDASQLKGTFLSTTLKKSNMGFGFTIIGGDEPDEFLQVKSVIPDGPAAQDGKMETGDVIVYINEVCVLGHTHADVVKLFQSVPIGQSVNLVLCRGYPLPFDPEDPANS
Set-up: key: below the threshold = too weak to quantify, mostly under pKd 3.1 to 4
In the case of B1, the pKd is reported as “below the threshold”. Work on B2 yielded a pKd of 4.6. In the case of B3, the pKd is reported as 4.58.

Each binder was assayed against SCRIB_3, Q14160 (assay: holdup assay). Settings: plain residues with an end cap or a label only (N-terminal biotin on a linker: ado-ado).
Chain of SCRIB_3, Q14160 (Q14160 999-1103): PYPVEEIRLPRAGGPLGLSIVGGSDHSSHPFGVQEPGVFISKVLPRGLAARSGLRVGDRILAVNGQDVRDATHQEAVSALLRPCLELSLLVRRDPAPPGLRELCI
Set-up: key: below the threshold = too weak to quantify, mostly under pKd 3.1 to 4
B1 showed a pKd of 4.03. Work on B2 yielded a pKd of 3.58. Work on B3 yielded a pKd of 4.55.

These binders were tested against MAGI1_2, Q96QZ7 (assay: holdup assay). Settings: plain residues with an end cap or a label only (N-terminal biotin on a linker: ado-ado).
Chain of MAGI1_2, Q96QZ7 (Q96QZ7 456-580): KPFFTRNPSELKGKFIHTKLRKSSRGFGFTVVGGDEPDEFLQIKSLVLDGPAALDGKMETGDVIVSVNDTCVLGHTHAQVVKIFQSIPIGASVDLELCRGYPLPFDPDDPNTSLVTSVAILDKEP
Set-up: key: below the threshold = too weak to quantify, mostly under pKd 3.1 to 4
For B1, the pKd was “below the threshold”. Binder B2 has a pKd of 4.21. For B3, the pKd was 4.05.

What follows are binders tested against FRMPD3, Q5JV73 (assay: holdup assay). Settings: plain residues with an end cap or a label only (N-terminal biotin on a linker: ado-ado).
Chain of FRMPD3, Q5JV73 (Q5JV73 12-100): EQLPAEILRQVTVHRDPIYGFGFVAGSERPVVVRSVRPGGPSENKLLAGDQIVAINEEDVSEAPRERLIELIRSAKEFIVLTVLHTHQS
Set-up: key: below the threshold = too weak to quantify, mostly under pKd 3.1 to 4
Binder B1 has a pKd of 3.66. With B2 the pKd was “below the threshold”. For B3, the pKd was “below the threshold”.

These binders were tested against T2, ARHGEF11, O15085 (assay: holdup assay). Settings: plain residues with an end cap or a label only (N-terminal biotin on a linker: ado-ado).
T2 sequence (O15085 42-136, limits assumed, looked up): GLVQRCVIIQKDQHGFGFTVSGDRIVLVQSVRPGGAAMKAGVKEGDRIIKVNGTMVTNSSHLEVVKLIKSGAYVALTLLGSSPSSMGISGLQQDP
Set-up: key: below the threshold = too weak to quantify, mostly under pKd 3.1 to 4
With B1 the pKd was 3.49. B2 gave a pKd of 4.06. B3 gave a pKd of 3.98.

The binders below were run against SCRIB_2, Q14160 (assay: holdup assay). Settings: plain residues with an end cap or a label only (N-terminal biotin on a linker: ado-ado).
Chain of SCRIB_2, Q14160 (Q14160 857-960): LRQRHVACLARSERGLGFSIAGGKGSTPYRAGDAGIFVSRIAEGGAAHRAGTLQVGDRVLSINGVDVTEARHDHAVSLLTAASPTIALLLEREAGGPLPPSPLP
Set-up: key: below the threshold = too weak to quantify, mostly under pKd 3.1 to 4
In the case of B1, the pKd is reported as “below the threshold”. In the case of B2, the pKd is reported as “below the threshold”. B3 showed a pKd of 4.28.

Each binder was assayed against DLG4_3, P78352 (assay: holdup assay). Settings: plain residues with an end cap or a label only (N-terminal biotin on a linker: ado-ado).
Chain of DLG4_3, P78352 (P78352 306-403): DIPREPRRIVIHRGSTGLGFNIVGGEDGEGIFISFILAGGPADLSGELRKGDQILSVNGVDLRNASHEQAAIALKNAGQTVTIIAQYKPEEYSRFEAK
Set-up: key: below the threshold = too weak to quantify, mostly under pKd 3.1 to 4
In the case of B1, the pKd is reported as “below the threshold”. B2 was tested, and the pKd was 4.23. B3 showed a pKd of 3.78.

Each binder was assayed against DLG4_2, P78352 (assay: holdup assay). Settings: plain residues with an end cap or a label only (N-terminal biotin on a linker: ado-ado).
Chain of DLG4_2, P78352 (P78352 155-259): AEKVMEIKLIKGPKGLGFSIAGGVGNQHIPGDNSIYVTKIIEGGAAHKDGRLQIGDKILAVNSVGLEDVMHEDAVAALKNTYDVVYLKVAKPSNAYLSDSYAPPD
Set-up: key: below the threshold = too weak to quantify, mostly under pKd 3.1 to 4
With B1 the pKd was “below the threshold”. B2 showed a pKd of 4.97. In the case of B3, the pKd is reported as 5.33.

The binders below were run against GOPC, Q9HD26 (assay: holdup assay). Settings: plain residues with an end cap or a label only (N-terminal biotin on a linker: ado-ado).
Set-up: key: below the threshold = too weak to quantify, mostly under pKd 3.1 to 4
B1 was tested, and the pKd was “below the threshold”. For B2, the pKd was 4.08. In the case of B3, the pKd is reported as “below the threshold”.

The binders below were run against PDLIM1, O00151 (assay: holdup assay). Settings: plain residues with an end cap or a label only (N-terminal biotin on a linker: ado-ado).
Chain of PDLIM1, O00151 (O00151 1-87): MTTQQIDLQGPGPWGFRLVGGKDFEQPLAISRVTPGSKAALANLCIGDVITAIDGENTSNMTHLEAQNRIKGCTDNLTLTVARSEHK
Set-up: key: below the threshold = too weak to quantify, mostly under pKd 3.1 to 4
With B1 the pKd was “below the threshold”. For B2, the pKd was “below the threshold”. For B3, the pKd was 3.75.

What follows are binders tested against LDB3, O75112 (assay: holdup assay). Settings: plain residues with an end cap or a label only (N-terminal biotin on a linker: ado-ado).
Chain of LDB3, O75112 (O75112 1-94): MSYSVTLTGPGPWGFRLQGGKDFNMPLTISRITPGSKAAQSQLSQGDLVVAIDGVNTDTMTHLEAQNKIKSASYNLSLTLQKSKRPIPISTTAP
Set-up: key: below the threshold = too weak to quantify, mostly under pKd 3.1 to 4
For B1, the pKd was “below the threshold”. For B2, the pKd was “below the threshold”. For B3, the pKd was “below the threshold”.

These binders were tested against AHNAK1, Q09666 (assay: holdup assay). Settings: plain residues with an end cap or a label only (N-terminal biotin on a linker: ado-ado).
Chain of AHNAK1, Q09666 (Q09666 4-100): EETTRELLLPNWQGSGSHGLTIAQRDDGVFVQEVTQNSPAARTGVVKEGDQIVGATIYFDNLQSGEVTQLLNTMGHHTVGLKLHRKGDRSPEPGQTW
Set-up: key: below the threshold = too weak to quantify, mostly under pKd 3.1 to 4
With B1 the pKd was “below the threshold”. With B2 the pKd was “below the threshold”. For B3, the pKd was “below the threshold”.

Each binder was assayed against T3, GRIP1_5, Q9Y3R0 (assay: holdup assay). Settings: plain residues with an end cap or a label only (N-terminal biotin on a linker: ado-ado).
T3 sequence (Q9Y3R0 568-668, limits assumed, looked up): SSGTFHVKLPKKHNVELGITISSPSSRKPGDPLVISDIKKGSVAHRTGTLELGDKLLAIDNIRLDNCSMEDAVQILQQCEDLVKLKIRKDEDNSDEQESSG
Set-up: key: below the threshold = too weak to quantify, mostly under pKd 3.1 to 4
With B1 the pKd was “below the threshold”. With B2 the pKd was “below the threshold”. In the case of B3, the pKd is reported as “below the threshold”.

Each binder was assayed against TJP2_1, Q9UDY2 (assay: holdup assay). Settings: plain residues with an end cap or a label only (N-terminal biotin on a linker: ado-ado).
Chain of TJP2_1, Q9UDY2 (Q9UDY2 24-128): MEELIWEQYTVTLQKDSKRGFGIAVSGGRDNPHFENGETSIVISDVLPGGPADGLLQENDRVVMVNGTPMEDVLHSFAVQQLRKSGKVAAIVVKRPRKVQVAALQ
Set-up: key: below the threshold = too weak to quantify, mostly under pKd 3.1 to 4
B1 was tested, and the pKd was “below the threshold”. Binder B2 has a pKd of 3.81. In the case of B3, the pKd is reported as “below the threshold”.

The binders below were run against IL16_1, Q14005 (assay: holdup assay). Settings: plain residues with an end cap or a label only (N-terminal biotin on a linker: ado-ado).
Chain of IL16_1, Q14005 (Q14005 210-306): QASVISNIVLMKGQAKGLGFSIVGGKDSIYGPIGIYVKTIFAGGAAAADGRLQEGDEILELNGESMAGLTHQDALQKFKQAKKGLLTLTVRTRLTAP
Set-up: key: below the threshold = too weak to quantify, mostly under pKd 3.1 to 4
With B1 the pKd was “below the threshold”. For B2, the pKd was “below the threshold”. For B3, the pKd was 4.55.

These binders were tested against T4, SIPA1L2, Q9P2F8 (assay: holdup assay). Settings: plain residues with an end cap or a label only (N-terminal biotin on a linker: ado-ado).
T4 sequence (Q9P2F8 945-1036, limits assumed, looked up): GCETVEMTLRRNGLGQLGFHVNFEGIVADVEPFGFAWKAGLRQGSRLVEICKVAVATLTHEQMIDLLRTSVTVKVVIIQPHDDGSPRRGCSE
Set-up: key: below the threshold = too weak to quantify, mostly under pKd 3.1 to 4
With B1 the pKd was “below the threshold”. For B2, the pKd was “below the threshold”. With B3 the pKd was “below the threshold”.

These binders were tested against DLG1_1, Q12959 (assay: holdup assay). Settings: plain residues with an end cap or a label only (N-terminal biotin on a linker: ado-ado).
Set-up: key: below the threshold = too weak to quantify, mostly under pKd 3.1 to 4
In the case of B1, the pKd is reported as “below the threshold”. B2 was tested, and the pKd was 4.83. In the case of B3, the pKd is reported as 4.86.

What follows are binders tested against T5, MPP6, Q9NZW5 (assay: holdup assay). Settings: plain residues with an end cap or a label only (N-terminal biotin on a linker: ado-ado).
T5 sequence (Q9NZW5 125-219, limits assumed, looked up): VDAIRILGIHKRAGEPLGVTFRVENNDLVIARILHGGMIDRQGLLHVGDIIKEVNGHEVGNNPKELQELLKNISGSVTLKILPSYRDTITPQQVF
Set-up: key: below the threshold = too weak to quantify, mostly under pKd 3.1 to 4
With B1 the pKd was “below the threshold”. For B2, the pKd was “below the threshold”. With B3 the pKd was “below the threshold”.

These binders were tested against T6, SHANK1, Q9Y566 (assay: holdup assay). Settings: plain residues with an end cap or a label only (N-terminal biotin on a linker: ado-ado).
T6 sequence (Q9Y566 658-767, limits assumed, looked up): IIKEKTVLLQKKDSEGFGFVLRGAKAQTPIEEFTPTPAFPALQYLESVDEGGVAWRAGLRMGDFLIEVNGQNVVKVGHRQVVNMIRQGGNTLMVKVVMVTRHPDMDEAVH
Set-up: key: below the threshold = too weak to quantify, mostly under pKd 3.1 to 4
For B1, the pKd was 4.14. In the case of B2, the pKd is reported as “below the threshold”. For B3, the pKd was “below the threshold”.

The binders below were run against GORASP2, Q9H8Y8 (assay: holdup assay). Settings: plain residues with an end cap or a label only (N-terminal biotin on a linker: ado-ado).
Set-up: key: below the threshold = too weak to quantify, mostly under pKd 3.1 to 4
B1 was tested, and the pKd was “below the threshold”. Work on B2 yielded a pKd of 4.26. With B3 the pKd was “below the threshold”.

The binders below were run against T7, DLG3_1, Q92796 (assay: holdup assay). Settings: plain residues with an end cap or a label only (N-terminal biotin on a linker: ado-ado).
T7 sequence (Q92796 125-227, limits assumed, looked up): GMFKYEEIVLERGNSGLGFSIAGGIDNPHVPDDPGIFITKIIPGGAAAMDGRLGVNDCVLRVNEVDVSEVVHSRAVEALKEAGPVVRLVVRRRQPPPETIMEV
Set-up: key: below the threshold = too weak to quantify, mostly under pKd 3.1 to 4
With B1 the pKd was “below the threshold”. With B2 the pKd was 4.21. With B3 the pKd was 4.37.

Each binder was assayed against T8, LIN7A, O14910 (assay: holdup assay). Settings: plain residues with an end cap or a label only (N-terminal biotin on a linker: ado-ado).
T8 sequence (O14910 103-200, limits assumed, looked up): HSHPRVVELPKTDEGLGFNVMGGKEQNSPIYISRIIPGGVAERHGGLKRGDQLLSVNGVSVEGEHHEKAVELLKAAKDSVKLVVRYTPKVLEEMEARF
Set-up: key: below the threshold = too weak to quantify, mostly under pKd 3.1 to 4
For B1, the pKd was “below the threshold”. For B2, the pKd was “below the threshold”. With B3 the pKd was “below the threshold”.

Each binder was assayed against T9, DLG3_2, Q92796 (assay: holdup assay). Settings: plain residues with an end cap or a label only (N-terminal biotin on a linker: ado-ado).
T9 sequence (Q92796 221-321, limits assumed, looked up): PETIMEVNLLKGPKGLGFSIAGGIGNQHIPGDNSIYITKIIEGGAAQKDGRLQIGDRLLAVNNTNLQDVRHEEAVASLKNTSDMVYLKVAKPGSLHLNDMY
Set-up: key: below the threshold = too weak to quantify, mostly under pKd 3.1 to 4
B1 showed a pKd of 4.15. B2 gave a pKd of 4.79. B3 was tested, and the pKd was 5.27.

What follows are binders tested against MAGI3_2, Q5TCQ9 (assay: holdup assay). Settings: plain residues with an end cap or a label only (N-terminal biotin on a linker: ado-ado).
Chain of MAGI3_2, Q5TCQ9 (Q5TCQ9 398-503): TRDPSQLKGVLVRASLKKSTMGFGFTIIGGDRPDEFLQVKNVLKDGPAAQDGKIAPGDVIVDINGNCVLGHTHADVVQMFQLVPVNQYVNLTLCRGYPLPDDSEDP
Set-up: key: below the threshold = too weak to quantify, mostly under pKd 3.1 to 4
For B1, the pKd was “below the threshold”. In the case of B2, the pKd is reported as 4.79. For B3, the pKd was 4.96.
